Experimental data as given in the supplement of paper PMC11246515.
± gives the standard deviation of the averaged measurements.

Assay: total protein half-life in vivo (active degradation + dilution); higher = more stable protein
[1] = E. coli NCM3722 delta-clpP delta-lon delta-hslV, growth: N-lim chemostat, doubling time 6 h
[2] = E. coli NCM3722 delta-clpP, growth: N-lim chemostat, doubling time 6 h
[3] = E. coli NCM3722 delta-hslV, growth: N-lim chemostat, doubling time 6 h
[4] = E. coli NCM3722 delta-lon, growth: N-lim chemostat, doubling time 6 h
[5] = E. coli NCM3722 delta-smpB, growth: N-lim chemostat, doubling time 6 h
[6] = wild type E. coli NCM3722, growth: C-lim chemostat, doubling time 3 h
[7] = wild type E. coli NCM3722, growth: C-lim chemostat, doubling time 6 h
[8] = wild type E. coli NCM3722, growth: C-lim chemostat, doubling time 12 h
[9] = wild type E. coli NCM3722, growth: N-lim chemostat, doubling time 6 h
[10] = wild type E. coli NCM3722, growth: N-lim chemostat, doubling time 12 h
[11] = wild type E. coli NCM3722, growth: P-lim chemostat, doubling time 6 h
[12] = wild type E. coli NCM3722, growth: P-lim chemostat, doubling time 12 h

| Sequence | total protein half-life in vivo [1] | total protein half-life in vivo [2] | total protein half-life in vivo [3] | total protein half-life in vivo [4] | total protein half-life in vivo [5] | total protein half-life in vivo [6] | total protein half-life in vivo [7] | total protein half-life in vivo [8] | total protein half-life in vivo [9] | total protein half-life in vivo [10] | total protein half-life in vivo [11] | total protein half-life in vivo [12] |
| --- | --- | --- | --- | --- | --- | --- | --- | --- | --- | --- | --- | --- |
| MVPVVALVGRPNVGKSTLFNRLTRTRDALVADFPGLTRDRKYGRAEIEGREFICIDTGGIDGTEDGVETRMAEQSLLAIEEADVVLFMVDARAGLMPADEAIAKHLRSREKPTFLVANKTDGLDPDQAVVDFYSLGLGEIYPIAASHGRGVLSLLEHVLLPWMEDLAPQEEVDEDAEYWAQFEAEENGEEEEEDDFDPQSLPIKLAIVGRPNVGKSTLTNRILGEERVVVYDMPGTTRDSIYIPMERDGREYVLIDTAGVRKRGKITDAVEKFSVIKTLQAIEDANVVMLVIDAREGISDQDLSLLGFILNSGRSLVIVVNKWDGLSQEVKEQVKETLDFRLGFIDFARVHFISALHGSGVGNLFESVREAYDSSTRRVGTSMLTRIMTMAVEDHQPPLVRGRRVKLKYAHAGGYNPPIVVIHGNQVKDLPDSYKRYLMNYFRKSLDVMGSPIRIQFKEGENPYANKRNTLTPTQMRKRKRLMKHIKKNK [P0A6P5] | 5.18 ± 0.36 h | 5.53 ± 0.68 h | 4.51 ± 0.067 h | 4.88 ± 0.11 h | 4.59 ± 0.29 h | 3.2 ± 0.2 h | 5.55 ± 0.11 h | 10.3 ± 0.65 h | 4.6 ± 0.16 h | 7.38 ± 0.25 h | 5.43 ± 0.67 h | 10.8 ± 0.39 h |
| MVRKGCNSLVRAEKILTHIAWVGMASYMELLNKFQYPKSSLLNLLNVMVDCGFLIKNKNGYYSLGIKNYELGCQALHRQNIFEVTKRPMQELSLKSGLVCHLGAMESISAIYLDKIESPDSVPTSKSWIGKKLELHITALGKALLAWKTREELDYFLEALTLTPHTRNTFTDKKLFLEELQKTRLRGWAIDNEESTYGAVCLSMPVFNMYNRVNYAISLSGDPVVYSGNKIDSYLELLRKCAEQISYGLGYRNENEHLRKGN | – | – | – | – | – | 1.15 h | 1.6 ± 0.092 h | 2.7 ± 0.086 h | – | 3.16 h | – | – |
| MVSETKTTEAPGLRRELKARHLTMIAIGGSIGTGLFVASGATISQAGPGGALLSYMLIGLMVYFLMTSLGELAAYMPVSGSFATYGQNYVEEGFGFALGWNYWYNWAVTIAVDLVAAQLVMSWWFPDTPGWIWSALFLGVIFLLNYISVRGFGEAEYWFSLIKVTTVIVFIIVGVLMIIGIFKGAQPAGWSNWTIGEAPFAGGFAAMIGVAMIVGFSFQGTELIGIAAGESEDPAKNIPRAVRQVFWRILLFYVFAILIISLIIPYTDPSLLRNDVKDISVSPFTLVFQHAGLLSAAAVMNAVILTAVLSAGNSGMYASTRMLYTLACDGKAPRIFAKLSRGGVPRNALYATTVIAGLCFLTSMFGNQTVYLWLLNTSGMTGFIAWLGIAISHYRFRRGYVLQGHDINDLPYRSGFFPLGPIFAFILCLIITLGQNYEAFLKDTIDWGGVAATYIGIPLFLIIWFGYKLIKGTHFVRYSEMKFPQNDKK | – | > 8 h | – | 5.36 h | 6.44 h | – | > 8 h | > 16 h | 6.92 h | – | 6.22 h | 8.87 h |
| MVSRRVQALLDQLRAQGIQDEQVLNALAAVPREKFVDEAFEQKAWDNIALPIGQGQTISQPYMVARMTELLELTPQSRVLEIGTGSGYQTAILAHLVQHVCSVERIKGLQWQARRRLKNLDLHNVSTRHGDGWQGWQARAPFDAIIVTAAPPEIPTALMTQLDEGGILVLPVGEEHQYLKRVRRRGGEFIIDTVEAVRFVPLVKGELA [P0A7A5] | 5.04 ± 0.19 h | 3.95 ± 0.35 h | 4.65 ± 0.94 h | 4.71 ± 0.85 h | 3.64 ± 0.14 h | 2.7898 ± 0.0014 h | 4.83 ± 2.6 h | 8.88 ± 0.65 h | 3.85 ± 0.078 h | 6.43 ± 0.091 h | 5.57 ± 0.56 h | 10.2 ± 0.73 h |
| MVSRYVPDMGDLIWVDFDPTKGSEQAGHRPAVVLSPFMYNNKTGMCLCVPCTTQSKGYPFEVVLSGQERDGVALADQVKSIAWRARGATKKGTVAPEELQLIKAKINVLIG [P0AE70] | 6.61 ± 0.43 h | – | 6.264 ± 0.046 h | 6.6 ± 0.43 h | 5.59 ± 0.098 h | 3.16 ± 0.28 h | 5.35 ± 0.39 h | – | 4.02 ± 0.46 h | 9.87 ± 1.7 h | 6.19 h | 11 ± 0.37 h |
| MVTINTESALTPRSLRDTRRMNMFVSVAAAVAGLLFGLDIGVIAGALPFITDHFVLTSRLQEWVVSSMMLGAAIGALFNGWLSFRLGRKYSLMAGAILFVLGSIGSAFATSVEMLIAARVVLGIAVGIASYTAPLYLSEMASENVRGKMISMYQLMVTLGIVLAFLSDTAFSYSGNWRAMLGVLALPAVLLIILVVFLPNSPRWLAEKGRHIEAEEVLRMLRDTSEKAREELNEIRESLKLKQGGWALFKINRNVRRAVFLGMLLQAMQQFTGMNIIMYYAPRIFKMAGFTTTEQQMIATLVVGLTFMFATFIAVFTVDKAGRKPALKIGFSVMALGTLVLGYCLMQFDNGTASSGLSWLSVGMTMMCIAGYAMSAAPVVWILCSEIQPLKCRDFGITCSTTTNWVSNMIIGATFLTLLDSIGAAGTFWLYTALNIAFVGITFWLIPETKNVTLEHIERKLMAGEKLRNIGV [P0AE24] | – | – | – | – | – | – | – | – | – | 9.72 h | – | – |
| MWIGIISLFPEMFRAITDYGVTGRAVKNGLLSIQSWSPRDFTHDRHRTVDDRPYGGGPGMLMMVQPLRDAIHAAKAAAGEGAKVIYLSPQGRKLDQAGVSELATNQKLILVCGRYEGIDERVIQTEIDEEWSIGDYVLSGGELPAMTLIDSVSRFIPGVLGHEASATEDSFAEGLLDCPHYTRPEVLEGMEVPPVLLSGNHAEIRRWRLKQSLGRTWLRRPELLENLALTEEQARLLAEFKTEHAQQQHKHDGMA [P0A873] | 4.44 ± 1.1 h | 4.01 ± 0.084 h | 4.21 ± 0.043 h | 4.7 ± 0.54 h | 4.21 ± 0.33 h | 3.04 ± 0.49 h | 5.88 ± 0.59 h | 8.46 ± 1.3 h | 4.25 ± 0.34 h | 7.45 ± 0.68 h | 5.85 ± 0.19 h | 10.4 ± 0.29 h |
| MWLLDQWAERHIAEAQAKGEFDNLAGSGEPLILDDDSHVPPELRAGYRLLKNAGCLPPELEQRREAIQLLDILKGIRHDDPQYQEVSRRLSLLELKLRQAGLSTDFLRGDYADKLLDKINDN | – | – | 6.32 h | – | – | 3.06 h | – | – | 5.56 h | 12.3 h | 6.15 h | – |
| MWSEYSLEVVDAVARNGSFSAAAQELHRVPSAVSYTVRQLEEWLAVPLFERRHRDVELTAAGAWFLKEGRSVVKKMQITRQQCQQIANGWRGQLAIAVDNIVRPERTRQMIVDFYRHFDDVELLVFQEVFNGVWDALSDGRVELAIGATRAIPVGGRYAFRDMGMLSWSCVVASHHPLALMDGPFSDDTLRNWPSLVREDTSRTLPKRITWLLDNQKRVVVPDWESSATCISAGLCIGMVPTHFAKPWLNEGKWVALELENPFPDSACCLTWQQNDMSPALTWLLEYLGDSETLNKEWLREPEETPATGD [P0ACR2] | 5.69 ± 0.2 h | 5.02 ± 0.17 h | 4.85 ± 1.3 h | – | 4.6 ± 0.3 h | 2.594 ± 0.0057 h | > 8 h | 10.5 ± 0.11 h | 4.8 ± 0.11 h | 8.76 ± 0.09 h | 5.31 ± 0.39 h | 8.51 ± 0.64 h |
| MWYQKTLTLSAKSRGFHLVTDEILNQLADMPRVNIGLLHLLLQHTSASLTLNENCDPTVRHDMERFFLRTVPDNGNYEHDYEGADDMPSHIKSSMLGTSLVLPVHKGRIQTGTWQGIWLGEHRIHGGSRRIIATLQGE [P0AF48] | 4.54 ± 0.35 h | > 8 h | 4.19 h | 4.31 ± 0.8 h | 4.33 ± 0.17 h | 2.96 ± 0.08 h | 4.74 ± 0.15 h | 11.9 ± 1.5 h | 3.98 ± 0.048 h | 6.66 ± 0.43 h | 5.51 ± 0.073 h | 11.3 ± 0.81 h |
